Where two headings read alike, the source gives them in different places. One block for each binder: values may come before it.
Assays:
monkey CD33-His protein [1] = target: T1, monkey CD33-His protein (monkey); assay: ELISA on coated monkey CD33-his
T1 construct: also called monkey CD33 protein

[2] = target: T2, human CD33-His (extracellular domain Asp 18-His 259) (human, UniProt P20138 18-259); assay: competitive ELISA vs coated C33B904 3ug/mL; soluble 25ug/ml
T2 construct: range 18-259; bought protein; also called hCD33-his; human CD33 protein; not shown: His tag
T2 sequence (P20138 18-259 limits assumed): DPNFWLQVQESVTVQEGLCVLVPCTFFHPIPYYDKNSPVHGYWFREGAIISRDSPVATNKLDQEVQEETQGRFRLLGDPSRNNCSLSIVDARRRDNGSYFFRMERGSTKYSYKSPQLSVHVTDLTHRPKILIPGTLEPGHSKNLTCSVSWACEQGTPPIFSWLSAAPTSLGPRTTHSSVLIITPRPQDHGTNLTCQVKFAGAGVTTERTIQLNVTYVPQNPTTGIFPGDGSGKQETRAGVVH

monkey CD33-His protein [3] = target: T1, monkey CD33-His protein; assay: ELISA on coated monkey CD33-his; remark: listed apart in the source
[4] = target: T2, human CD33-His (extracellular domain …); assay: competitive ELISA vs coated S006-NB146-139 3ug/mL; soluble 25ug/ml
[5] = target: T2, human CD33-His (extracellular domain …); assay: competitive ELISA vs coated S006-NB146-46 2ug/mL; soluble 25ug/ml
Experimental: VHH antibodies and control antibodies with known epitopes were subjected to epitope classification with competitive ELISA. ELISA plates were coated with 2 μg/mL antibodies according to the method in Example 5.1; the human CD33-his protein was subjected to a gradient dilution from 30 μg/mL, and EC80 values (Tables 26-27) were calculated. ELISA plates were coated with 2 μg/mL antibodies; after 25 µg/mL of antibodies to be tested were added, a human CD33-his protein having an EC80 concentration corresponding to each of the antibodies to be tested was then added for incubation for 2 h. The plates were washed 5 times with PBS, then HRP-labeled anti-His antibodies (purchased from GenScript, Cat. No. A00612) were added for incubation for 1 h, and the plates were washed 5 times. A TMB substrate was added at 50 μL/well and incubated at room temperature for 10 min, then a stop solution (1.0 M HCl) was added at 50 μL/well. OD_{450 nm} values were read using an ELISA plate reader (Insight, purchased from PerkinElmer), and the competition rate between the antibodies was calculated according to the OD_{450 nm} values using a formula. The results are shown in FIGS. 12A-12B, the higher the value of the competition rate, the closer the epitopes to which two antibodies bind.

human CD33-C2-his = target: T3, human CD33-C2-his (human, UniProt P20138 136-260); assay: ELISA on coated human CD33-C2-his
T3 construct: expressed in HEK293E; also called hCD33-C2-his; human CD33 protein C2-domain; not shown: His tag
T3 sequence (P20138 other isoform, or with tags, fused parts or gaps limits assumed): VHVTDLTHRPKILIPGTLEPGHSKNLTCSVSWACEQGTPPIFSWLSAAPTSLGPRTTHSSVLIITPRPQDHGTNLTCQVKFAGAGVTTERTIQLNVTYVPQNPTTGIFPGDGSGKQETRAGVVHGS

monkey CD33-His protein [6] = target: T1, monkey CD33-His protein; assay: ELISA on coated monkey CD33-his; remark: listed apart in the source
human CD33-his protein [7] = target: T4, human CD33-his protein (human, UniProt P20138 18-259); assay: competition ELISA, coated human CD33-his, vs Biotin-C33B904 at EC80; antibody 31.25 nM
T4 construct: range 18-259; bought protein; also called hCD33-his; recombinant human CD33-his; not shown: His tag
T4 sequence (P20138 18-259 limits assumed): as the sequence (P20138 18-259 limits assumed) above
Experimental: (§1) The plate was sealed with a plastic film and incubated at 4° C. overnight, washed twice with PBS the next day, and a blocking solution [PBS+2% (w/w) BSA] was added for blocking at room temperature for 2 h. The blocking solution was discarded, and VHH-Fc antibody or negative control antibody serially diluted from 100 nM was added at 50 μL/well. After incubation at 37° C. for 2 h, the plate was washed 3 times with PBS. A secondary antibody labeled with HRP (horseradish peroxidase) (purchased from Sigma, Cat. No. A0170) was added. After incubation for 1 h at 37° C., the plate was washed 5 times with PBS. A TMB substrate was added at 50 μL/well. After incubation at room temperature for 10 min, a stop solution (1.0 N HCl) was added at 50 μL/well. The OD450 nm values were read on an ELISA plate reader (Multimode Plate Reader, EnSight, purchased from Perkin Elmer). The assay results for the binding of the VHH-Fc to hCD33-his by ELISA are shown in FIGS. 7A and 7B and Tables 11 and 12. […] The IgG control was hIgG1, and the data in the table are OD450 nm values.
(§2) ELISA plates were coated with 2 μg/mL human CD33-his protein according to the method in Example 5.1; the Biotin-C331B904 antibody was subjected to a gradient dilution from 15 μg/mL, and EC80 values (0.18 μg/mL) were calculated. […] OD_{450 nm} values were read using an ELISA plate reader (Insight, purchased from PerkinElmer). […]

human CD33-his protein [8] = target: T4, human CD33-his protein; assay: competition ELISA, coated human CD33-his, vs Biotin-C33B904 at EC80; antibody 0 nM (no competitor)
Experimental: ELISA plates were coated with 2 μg/mL human CD33-his protein according to the method in Example 5.1; the Biotin-C331B904 antibody was subjected to a gradient dilution from 15 μg/mL, and EC80 values (0.18 μg/mL) were calculated. ELISA plates were coated with 2 μg/mL human CD33-his protein; starting from 40 μg/mL, the VHH antibodies to be tested were diluted in a 1:2 dilution ratio to obtain seven concentrations and added to the ELISA plates, and then Biotin-C331904 antibodies with the EC80 concentrations were added for incubation for 2 h. The plates were washed 5 times with PBS and then […] (purchased from Sigma, Cat. No. S2438) were added for incubation for 1 h, and the plates were washed 5 times. A TMB substrate was added at 50 μL/well and incubated at room temperature for 10 min, then a stop solution (1.0 M HCl) was added at 50 μL/well. OD_{450 nm} values were read using an ELISA plate reader (Insight, purchased from PerkinElmer). Then, analysis was performed by software (GraphPad Prism8), and data were fitted for curve plotting. The results are shown in FIGS. 13A-13B and Tables 28 and 29.

human CD33-his protein [9] = target: T4, human CD33-his protein; assay: competition ELISA, coated human CD33-his, vs Biotin-C33B904 at EC80; antibody 15.63 nM
Experimental: as §1, §2

EC50 (read off the curve) (monkey CD33-His protein [1]): ~0.2 nM | inhibition rate [2]: 86% | EC50 (read off the curve) (monkey CD33-His protein [3]): ~0.1 nM | inhibition rate [4]: 101% | inhibition rate [5]: 92% | EC50 (read off the curve) (human CD33-C2-his): ~0.3 nM | EC50 (read off the curve) (monkey CD33-His protein [6]): ~0.2 nM
B1: C33B904 hIgG1 (antibody, V domains shown)
VH: EVQLVESGGGLVQPGRSLRLSCAASGFTFDDYAMHWVRQAPGKGLEWVSGIGWSGGSIVYADSVKGRFTISRDNAKNSLYLQMNSLRAEDTALYYCAKDSPYGDFFDYWGQGTLVTVSS
VL: DIVMTQSPDSLAVSLGERATINCKSSQTVFYSSNNKNYLAWYQQKPGQPPKLLISWASTRKSGVPDRFSGSGSGTDFTLTVSSLQAEDVAVYYCQHYYSTPYTFGQGTKLEIKR
notes: intact human IgG1; variable regions from US20190382481A1; also called C33B3904; C331B904

OD450 (Biotin-C33B904 signal) (human CD33-his protein [7]): 0.46 | OD450 (Biotin-C33B904 signal) (human CD33-his protein [8]): 2.35 | OD450 (Biotin-C33B904 signal) (human CD33-his protein [9]): 0.88
B2: C33B904 (antibody, human IgG1, kappa, V domains shown)
VH: B1 VH
VL: B1 VL
notes: control antibody, intact human IgG1 form; variable regions from US20190382481A1; also called C33B904 hIgG1; C331B904

Reference: patent US20240124575A1 (SIMCERE ZAIMING PHARMACEUTICAL, published 2024)
